Test results from patent publication US20230374161A1 (Stanford University, published 2023).

Target: human NKG2A (human, UniProt P26715 94-233, limits assumed)
Assay: not stated; drawn table 'Binding affinity of anti-NKG2A scFv to human NKG2A', column 'Binding affinity, KD (M)'

human NKG2A, sequence (P26715 94-233 limits assumed): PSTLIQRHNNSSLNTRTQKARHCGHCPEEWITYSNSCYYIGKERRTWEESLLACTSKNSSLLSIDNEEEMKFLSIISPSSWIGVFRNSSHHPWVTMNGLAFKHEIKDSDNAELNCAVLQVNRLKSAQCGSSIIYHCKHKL

Kd: 0.0665 nM
B1: murine anti-NKG2A scFv (scFv)
scFv: QVQLQQPGAELVRPGASVKLSCKASGYTFTSYWMNWVKQRPEQGLQWIGRIDPYDSETHYSQKFKDKAILTVDKSSSTAYMRLSSLTSEDSAVYYCARGGYDFDVGTLYWFFDVWGAGTTVTVSSGGSTRSSSSGGGGSGGGGDIQMTQSPASLSASVGETVTITCRASENIYSYLAWYQQKQGKSPQFLVYNAKTLAEGVPSRFSGSGSGTQFSLKINSLQPEDFGSYYCQHHYGTPRTFGGGTKLEIKAAAHHHHHHHH
notes: Derived from the VH and VL of murine antibody Z270 (U.S. Pat. No. 9,683,041), expressed in Hi5 cells, purified on Ni-NTA; also called αNKG2A-scFv
